Starred links: 1 amine or outer side, 2 acyl side, 3 side chain; linkers in the order of their positions; H or OH if unused. Non-standard residues stand in square brackets, D forms with d. Groups on a side chain read outwards from the residue. No end group written: not given here. *: point of attachment. C20 diacid = O=C(O)CCCCCCCCCCCCCCCCCCC(=O)*; C18 diacid = O=C(O)CCCCCCCCCCCCCCCCC(=O)*; γGlu = O=C(O)[C@H](CCC(=O)[*:2])N[*:1]; εLys = N[C@@H](CCCCN[*:1])C(=O)[*:2]; AEEA = NCCOCCOCC(=O)O; Aib = CC(C)(N)C(=O)O
T1: GIP receptor (human (printed as hGIPR), UniProt P48546 22-466)
T1 sequence (looked up): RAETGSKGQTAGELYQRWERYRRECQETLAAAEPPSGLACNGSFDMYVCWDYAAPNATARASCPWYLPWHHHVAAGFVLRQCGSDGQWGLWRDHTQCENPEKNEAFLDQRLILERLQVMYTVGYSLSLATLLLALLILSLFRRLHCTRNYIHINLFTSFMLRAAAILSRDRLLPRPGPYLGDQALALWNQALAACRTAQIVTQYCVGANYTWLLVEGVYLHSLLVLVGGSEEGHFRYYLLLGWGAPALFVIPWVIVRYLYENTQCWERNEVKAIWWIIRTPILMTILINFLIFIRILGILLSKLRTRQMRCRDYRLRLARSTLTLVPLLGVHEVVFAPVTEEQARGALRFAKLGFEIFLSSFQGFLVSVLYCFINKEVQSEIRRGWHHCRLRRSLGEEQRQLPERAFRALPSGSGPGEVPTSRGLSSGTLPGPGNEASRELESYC

T2: NPY2 receptor (human (printed as hNPY2R), UniProt P49146 1-381)
T2 sequence (looked up): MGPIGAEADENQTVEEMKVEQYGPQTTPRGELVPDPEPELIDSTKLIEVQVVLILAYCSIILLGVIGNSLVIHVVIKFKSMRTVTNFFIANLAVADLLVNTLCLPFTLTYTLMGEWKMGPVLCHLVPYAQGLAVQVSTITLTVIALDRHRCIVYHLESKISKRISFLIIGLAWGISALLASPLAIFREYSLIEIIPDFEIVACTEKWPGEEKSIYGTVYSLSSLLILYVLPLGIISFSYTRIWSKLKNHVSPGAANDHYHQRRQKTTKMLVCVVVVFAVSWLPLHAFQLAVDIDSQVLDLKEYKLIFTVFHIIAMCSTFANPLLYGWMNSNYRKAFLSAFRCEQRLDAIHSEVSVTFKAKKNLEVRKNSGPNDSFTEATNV

T3: human GIP receptor (human, UniProt P48546 22-466)
T3 sequence (looked up): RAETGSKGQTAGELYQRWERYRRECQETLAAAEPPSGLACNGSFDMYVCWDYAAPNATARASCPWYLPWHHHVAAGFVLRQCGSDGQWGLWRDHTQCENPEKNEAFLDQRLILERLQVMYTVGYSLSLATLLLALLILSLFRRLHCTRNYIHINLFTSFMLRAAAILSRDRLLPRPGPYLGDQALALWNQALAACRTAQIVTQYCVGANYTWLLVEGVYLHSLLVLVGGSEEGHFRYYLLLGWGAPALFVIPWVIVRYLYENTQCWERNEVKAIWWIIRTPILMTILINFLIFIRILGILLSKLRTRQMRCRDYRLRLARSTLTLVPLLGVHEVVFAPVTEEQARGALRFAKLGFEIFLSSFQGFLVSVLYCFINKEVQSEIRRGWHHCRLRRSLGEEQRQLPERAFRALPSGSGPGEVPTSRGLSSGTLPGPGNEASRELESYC

T4: human neuropeptide Y2 receptor (human, UniProt P49146 1-381)
T4 sequence (looked up): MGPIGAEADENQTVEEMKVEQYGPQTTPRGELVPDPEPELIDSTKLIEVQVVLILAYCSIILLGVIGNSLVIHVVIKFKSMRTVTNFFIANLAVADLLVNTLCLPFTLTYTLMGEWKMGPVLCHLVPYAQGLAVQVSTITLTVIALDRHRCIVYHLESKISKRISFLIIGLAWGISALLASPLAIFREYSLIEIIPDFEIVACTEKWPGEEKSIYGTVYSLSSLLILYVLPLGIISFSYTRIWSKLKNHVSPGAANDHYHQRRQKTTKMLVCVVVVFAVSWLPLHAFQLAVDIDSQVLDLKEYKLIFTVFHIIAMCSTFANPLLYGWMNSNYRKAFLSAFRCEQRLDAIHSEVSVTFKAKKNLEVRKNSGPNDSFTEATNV


Tests used:
Assay in all cases: cell-based or functional assay
GLP-1 receptor = GLP-1 receptor (human (printed as hGLP1R), UniProt P43220 24-463)
GIP receptor = molecular target: T1, GIP receptor
NPY2 receptor = molecular target: T2, NPY2 receptor
human GLP-1 receptor = human GLP-1 receptor (human, UniProt P43220 24-463)
human GIP receptor = molecular target: T3, human GIP receptor
[1] = molecular target: T4, human neuropeptide Y2 receptor

Row | Binder | EC50 hGLP1R 0.5% hP (CreLuc) (GLP-1 receptor) [nM] | EC50 hGLP1R 100% hP (CreLuc) (GLP-1 receptor) [nM] | EC50 hGIPR 0.5% hP (CreLuc) (GIP receptor) [nM] | EC50 hGIPR 100% hP (CreLuc) (GIP receptor) [nM] | EC50 hNPY2R 0.5% hP (CreLuc) (NPY2 receptor) [nM] | EC50 hNPY2R 100% hP (CreLuc) (NPY2 receptor) [nM] | EC50 CreLuc hGLP1R 0.5% hP (human GLP-1 receptor) [nM] | EC50 CreLuc hGLP1R 100% hP (human GLP-1 receptor) [nM] | EC50 CreLuc hGIPR 0.5% hP (human GIP receptor) [nM] | EC50 CreLuc hGIPR 100% hP (human GIP receptor) [nM] | EC50 CreLuc hNPY2R 0.5% hP [1] [nM] | EC50 CreLuc hNPY2R 100% hP [1] [nM]
1 | Y[Aib]EGTFTSDYSI[Aib]LEKQAQ[Aib]AFVQWLIK([AEEA-AEEA-Glu-Glu-Glu-Glu-C18 diacid])GGPEEGASLRHYYNWLTRQRY-NH2 (also: TFA salt) [Compound 177] | 0.16 | 12.5 | 0.28 | 2.83 | 18.7 | 115 | – | – | – | – | – | –
2 | Y[Aib]EGTFTSDYSI[Aib]LEKQAQ[Aib]EFVQWLIK([Glu-Glu-Glu-Glu-Glu-Glu-C18 diacid])GGPSEGASLRHYYNWLTRQRY-NH2 (also: TFA salt) [Compound 179] | 0.22 | 10.5 | 0.38 | 3.34 | 18.5 | 111 | – | – | – | – | – | –
3 | Y[Aib]EGTFTSDYSI[Aib]LEKQAE[Aib]AFVQWLIKGGPSEGASLRHYYNWLTRQRY-NH2 (not fully specified (residue 28); also: TFA salt) [Compound 174] | 0.22 | 7.71 | 0.17 | 1.26 | 11.5 | 39.2 | – | – | – | – | – | –
4 | Y[Aib]EGTFTSDYSI[Aib]LEEQAQ[Aib]AFVEWLIK([εLys-γGlu-γGlu-γGlu-γGlu-γGlu-C20 diacid])GGPSSGASLRHYYNWLTRQRY-NH2 (also: TFA salt) [Compound 181] | 0.14 | 3.23 | 0.16 | 1.23 | 16.5 | 102 | – | – | – | – | – | –
5 | Y[Aib]EGTFTSDYSI[Aib]LEKQAQ[Aib]AFVEWLIK([AEEA-AEEA-γGlu-γGlu-γGlu-γGlu-C20 diacid])GGPSSPASLRHYYNWLTRQRY-NH2 (also: TFA salt) [Compound 175] | 0.1 | 5.3 | 0.29 | 1.53 | 10.5 | 48.7 | – | – | – | – | – | –
6 | Y[Aib]EGTFTSDYSI[Aib]LEKQAQ[Aib]AFVEWLIKGGPSSYASLRHYYNWLTRQRY-NH2 (not fully specified (residue 28); also: TFA salt) [Compound 183] | 0.22 | 12.8 | 0.28 | 6.83 | 9.34 | 56.6 | – | – | – | – | – | –
7 | YXEGTFTSDYSIXLEKQAQXEFVQWLIKGGPSEGASLRHYYNWLTRQRY (Aib at 2, 13, 20; K28 side chain carries C18DA-E-E-E-E-E (SEQ ID NO: 636); C-terminal amide) [Compound 176] | 0.29 | 9.56 | 0.68 | 3.37 | 30.4 | 197 | – | – | – | – | – | –
8 | YXEGTFTSDYSIXLEKQAQXAFVEWLIKGGPRSGASLRHYYNWLTRQRY (Aib at 2, 13, 20; K28 side chain: C20DA-gGlu-gGlu-gGlu-gGlu-gGlu-gGlu-eLys; C-terminal NH2) [Compound 168] | – | – | – | – | – | – | 0.11 | 3.59 | 0.2 | 1.5 | 6.05 | 36.1
9 | YXEGTFTSDYSIXLEKQAQXAFVEWLIKGGPSSGASLRHYXNWLTRQRY (Aib at 2, 13, 20, 41; K28 side chain carries C20DA-gGlu-gGlu-gGlu-gGlu-gGlu-gGlu-eLys; C-terminal amide) [Compound 184] | 0.18 | 1.87 | 0.28 | 1.37 | 46 | 125 | – | – | – | – | – | –
10 | YXEGTFTSDYSIXLEKQAQXAFVEWLIKGGPSSPASLRHYYNWLTRQRY (Aib at 2, 13, 20; K28 side chain carries C18DA-gGlu-gGlu-gGlu-gGlu-gGlu; C-terminal amide) [Compound 180] | 0.1 | 3.61 | 0.2 | 3.88 | 19.6 | 107 | – | – | – | – | – | –
11 | YXEGTFTSDYSIXLEKQAQXAFVQWLIKGGPEEGASLRHYYNWLTRQRY (Aib at 2, 13, 20; K28 side chain: C18DA-gGlu-gGlu-gGlu-gGlu-gGlu-AHX; C-terminal NH2) [Compound 162] | – | – | – | – | – | – | 0.2 | 8.2 | 0.25 | 1.61 | 25.8 | 92.6
12 | YXEGTFTSDYSIXLEKQAQXAFVEWLIKGGPSSGASLRXYYNWLTRQRY (Aib at 2, 13, 20, 39; K28 side chain carries C20DA-gGlu-gGlu-gGlu-gGlu-gGlu-gGlu-eLys; C-terminal amide) [Compound 182] | 0.13 | 2.73 | 0.21 | 1.39 | 70.4 | 256 | – | – | – | – | – | –
13 | YXEGTFTSDYSIXLEKQAQXAFVQWLIKGGPSSGASLRHYYNWLTRQRY (Aib at 2, 13, 20; K28 side chain: C18DA-gGlu-gGlu-gGlu-gGlu-gGlu-OEG-OEG; C-terminal NH2) [Compound 167] | – | – | – | – | – | – | 0.04 | 0.82 | 0.14 | 0.49 | 10.5 | 26.5
14 | Y[Aib]EGTFTSDYSI[Aib]LEKQAQ[Aib]AFVEWLIK([AEEA-AEEA-γGlu-γGlu-γGlu-C18 diacid])GGPESGASLRHYYNWLTRQRY-NH2 [Compound 166] | – | – | – | – | – | – | 0.07 | 4.24 | 0.08 | 0.64 | 12.5 | 57.9
15 | Y[Aib]EGTFTSDYSI[Aib]LEKQAQ[Aib]AFVQWLIK([AEEA-AEEA-γGlu-γGlu-γGlu-γGlu-C18 diacid])GGPSEPASLRHYYNWLTRQRY-NH2 (also: TFA salt) [Compound 173] | 0.11 | 3.07 | 0.27 | 0.94 | 12.4 | 24.9 | – | – | – | – | – | –
16 | Y[Aib]EGTFTSDYSI[Aib]LEKQAQ[Aib]AFVQWLIK([AEEA-AEEA-γGlu-γGlu-Glu-γGlu-C20 diacid])GGPSEPASLRHYYNWLTRQRY-NH2 [Compound 165] | – | – | – | – | – | – | 0.13 | 4.81 | 0.33 | 1.88 | 8.91 | 36
17 | Y[Aib]EGTFTSDYSI[Aib]LEKQAQ[Aib]AFVEWLIKGGPSSPASLRHYYNWLTRQRY-NH2 (not fully specified (residue 28); also: TFA salt) [Compound 178] | 0.08 | 5.51 | 0.12 | 5.86 | 13.3 | 115 | – | – | – | – | – | –
18 | Y[Aib]EGTFTSDYSI[Aib]LEKQAQ[Aib]EFVQWLIKGGPSEGASLRHYYNWLTRQRY-NH2 (not fully specified (residue 28)) [Compound 164] | – | – | – | – | – | – | 0.28 | 6.48 | 0.25 | 1.26 | 24 | 50.1
19 | Y[Aib]EGTFTSDYSI[Aib]LEKQAQ[Aib]AFVEWLIK([AEEA-AEEA-γGlu-γGlu-γGlu-γGlu-C18 diacid])GGPESGASLRHYYNWLTRQRY-NH2 [Compound 163] | – | – | – | – | – | – | 0.1 | 4.72 | 0.26 | 0.87 | 21.3 | 55.2

Source: patent publication US20240247080A1, “GLP1/GIP/NPY2 RECEPTOR TRIPLE AGONISTS” (Boehringer Ingelheim International GmbH, priority 2022, published 2024)
